What was measured:
[1] = target: T1, EGFR extracellular domain (R&D Systems) (UniProt P00533 25-645, limits assumed); assay: SPR, Fab over EGFR ECD on CM5 chip
[2] = target: T1, EGFR extracellular domain (R&D Systems); assay: SPR, full length antibody over EGFR chip
[3] = target: T1, EGFR extracellular domain (R&D Systems); assay: SPR, Fab over EGFR on CM5 chip

B1: C225 L2/H3 Fab (Fab, V domains shown)
VH: QVQLQQSGPGLVKPSQTLSLTCTVSGFSLTNYGVHWVRQAPGKGLEWLGVIWSGGNTDYNTSLKSRLTISKDNSKSQVVLQMNSLRAEDTAVYYCARALTYYDYEFAYWGQGTLVTVSS
VL: DILLTQSPATLSLSPGERVTLSCRASQSIGTNIHWYQQKPDQSPKLLIKYASESISGIPSRFSGSGSGTDFTLTISSLQPEDFADYYCQQNNNWPTTFGAGTKLEIK
Q: Which Kd [1] does the source give for B1 here?
A: 192 nM

Q: What about the koff [1] of the same binder?
A: 0.00535 s⁻¹

Q: And the kon [1]?
A: 27900 M⁻¹ s⁻¹

B2: C225 L2/H4 Fab (Fab, V domains shown)
VH: QVQLQQSGPGLVKPSQTLSLTCTVSGFSLTNYGVHWVRQAPGKGLEWLGVIWSGGNTDYNTSLKSRLTISKDNSKSQVVLTMTNMDPVDTATYYCARALTYYDYEFAYWGQGTLVTVSS
VL: DILLTQSPATLSLSPGERVTLSCRASQSIGTNIHWYQQKPDQSPKLLIKYASESISGIPSRFSGSGSGTDFTLTISSLQPEDFADYYCQQNNNWPTTFGAGTKLEIK
Q: Which results are given for B2?
A: Kd [1]: 264 nM; koff [1]: 0.00473 s⁻¹; kon [1]: 17900 M⁻¹ s⁻¹

B3: C225 L3/H8 full length antibody (antibody, IgG1, V domains shown)
VH: QVQLVESGGGLVQPGRSLRLSCAVSGFSLTNYGVHWVRQAPGKGLEWVSVIWSGGNTDYNTSVKGRFTISKDNSKSTVYLQMNSLRAEDTAVYYCARALTYYDYEFAYWGQGTLVTVSS
VL: DILLTQSPSSLSASVGDRVTITCRASQSIGTNIHWYQQKPDQSPKLLIKYASESISGIPSRFSGSGSGTDFTLTISSLQAEDVAVYYCQQNNNWPTTFGAGTKLEIK
Q: Does B3 bind [2]?
A: binds

B4: C225 L4/H4 full length antibody (antibody, IgG1, V domains shown)
VH: QVQLQQSGPGLVKPSQTLSLTCTVSGFSLTNYGVHWVRQAPGKGLEWLGVIWSGGNTDYNTSLKSRLTISKDNSKSQVVLTMTNMDPVDTATYYCARALTYYDYEFAYWGQGTLVTVSS
VL: DILLTQSPAFLSVTPGEKVTITCRASQSIGTNIHWYQQKPDQSPKLLIKYASESISGIPSRFSGSGSGTDFTLTINSLEAEDAATYYCQQNNNWPTTFGAGTKLEIK
Q: Does B4 bind [2]?
A: binds

B5: C225 L4/H5 full length antibody (antibody, IgG1, V domains shown)
VH: QVQLQQSGPGLVKPSQTLSLTCTVSGFSLTNYGVHWVRQAPGKGLEWLGVIWSGGNTDYNTPLTSRLTINKDNSKSQVVLQMNSLRAEDTAVYYCARALTYYDYEFAYWGQGTLVTVSS
VL: DILLTQSPAFLSVTPGEKVTITCRASQSIGTNIHWYQQKPDQSPKLLIKYASESISGIPSRFSGSGSGTDFTLTINSLEAEDAATYYCQQNNNWPTTFGAGTKLEIK
Q: Does B5 bind [2]?
A: binds

B6: C225 L4/H6 full length antibody (antibody, IgG1, V domains shown)
VH: QVQLQQSGPGLVKPSQTLSLTCTVSGFSLTNYGVHWVRQAPGKGLEWVGVIWSGGNTDYNTSVKGRFTISKDNSKSQVYLQMNSLRAEDTAVYYCARALTYYDYEFAYWGQGTLVTVSS
VL: DILLTQSPAFLSVTPGEKVTITCRASQSIGTNIHWYQQKPDQSPKLLIKYASESISGIPSRFSGSGSGTDFTLTINSLEAEDAATYYCQQNNNWPTTFGAGTKLEIK
Q: Does B6 bind [2]?
A: binds

B7: C225 L4/H7 full length antibody (antibody, IgG1, V domains shown)
VH: QVQLQQSGPGLVKPSQTLSLTCTVSGFSLTNYGVHWVRQPPGKGLEWIGVIWSGGNTDYNTSLKSRVTISKDNSKSQVSLKLSSVTAADTAVYYCARALTYYDYEFAYWGQGTLVTVSS
VL: DILLTQSPAFLSVTPGEKVTITCRASQSIGTNIHWYQQKPDQSPKLLIKYASESISGIPSRFSGSGSGTDFTLTINSLEAEDAATYYCQQNNNWPTTFGAGTKLEIK
Q: Does B7 bind [2]?
A: binds

B8: C225 L4/H8 full length antibody (antibody, IgG1, V domains shown)
VH: QVQLVESGGGLVQPGRSLRLSCAVSGFSLTNYGVHWVRQAPGKGLEWVSVIWSGGNTDYNTSVKGRFTISKDNSKSTVYLQMNSLRAEDTAVYYCARALTYYDYEFAYWGQGTLVTVSS
VL: DILLTQSPAFLSVTPGEKVTITCRASQSIGTNIHWYQQKPDQSPKLLIKYASESISGIPSRFSGSGSGTDFTLTINSLEAEDAATYYCQQNNNWPTTFGAGTKLEIK
Q: Does B8 bind [2]?
A: binds

B9: ICR62 WT Fab (Fab, V domains shown)
VH: QVNLLQSGAALVKPGASVKLSCKGSGFTFTDYKIHWVKQSHGKSLEWIGYFNPNSGYSTYNEKFKSKATLTADKSTDTAYMELTSLTSEDSATYYCTRLSPGGYYVMDAWGQGASVTVSS
VL: DIQMTQSPSFLSASVGDRVTINCKASQNINNYLNWYQQKLGEAPKRLIYNTNNLQTGIPSRFSGSGSGTDYTLTISSLQPEDFATYFCLQHNSFPTFGAGTKLELK
Q: What does the source list for B9?
A: Kd [3]: 0.257 nM; koff [3]: 2.53e-05 s⁻¹; kon [3]: 98600 M⁻¹ s⁻¹

B10: ICR62 L2/H9 Fab (Fab, V domains shown)
VH: QVQLQQSGPGLVKPGASVKVSCKGSGFTFTDYKIHWVRQAPGKSLEWMGYFNPNSGYSTYNEKFQGRVTITADKSTDTAYMELSSLRSEDTAVYYCTRLSPGGYYVMDAWGQGTLVTVSS
VL: DIQMTQSPSSLSASVGDRVTITCRASQNINNYLNWYQQKPGKAPKRLIYNTNNLQTGIPSRFSGSGSGTDYTLTISSLQPEDFATYFCLQHNSFPTFGAGTKLEIK
Q: What does the source list for B10?
A: Kd [3]: 0.45 nM; koff [3]: 0.000106 s⁻¹; kon [3]: 235000 M⁻¹ s⁻¹

— US7657380
